One test has as its target T1, CD24-GST (Homo sapiens, UniProt P25063).
T1 construct: cluster of differentiation 24 (CD24) fused to GST; also called GST-CD24
T1 chain: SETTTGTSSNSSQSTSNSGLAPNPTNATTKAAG
The experiment in a line: SPR; Biacore X100; CD24-GST flowed over immobilized antibody; 1:1 binding model; procedure as in ref. 45. The note with it: both partners purified. A general note: Surface plasmon resonance follows binding to a sensor surface in real time, without labels.

Test [1] addresses T2, membrane CD24 on hepatoma cells (Huh-7, BEL-7402) (Homo sapiens, UniProt P25063).
T2 construct: cluster of differentiation 24 (CD24), GPI-linked membrane protein, endogenous on human hepatoma cell lines; also called CD24 receptors; CD24 ligand; source: endogenous, on Huh-7 and BEL-7402 cells
T2 chain: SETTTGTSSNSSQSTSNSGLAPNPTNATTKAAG
The experiment in a line: flow cytometry on cells; antibody on Huh-7 and BEL-7402 hepatoma cells, also after RNA interference against CD24; procedure as in ref. 12. The note with it: one partner purified. (In flow cytometry, cells or beads pass a laser one at a time.)

For orientation: Kd means a measure of binding affinity in units of concentration. A low value points to tighter binding. Broadly, the koff is the rate constant with which the complex falls apart. The low end stands for a long-lived complex, the high end for a short-lived complex. The kon is a measure of how fast the partners come together. Low values mean slow association, high ones fast association.

B1: chimeric antibody cG7 (antibody, V domains shown)
VH: QVKLEESGGGLVQPGGSLKISCAASGFDFSRYWMSWVRQAPGKGLEWIGEINPDSSTINYTPSLRDKFIISRDNAKNTLYLQMSKVRYEDTSLYYCARQGDYWGQGTSVTVSS
VL: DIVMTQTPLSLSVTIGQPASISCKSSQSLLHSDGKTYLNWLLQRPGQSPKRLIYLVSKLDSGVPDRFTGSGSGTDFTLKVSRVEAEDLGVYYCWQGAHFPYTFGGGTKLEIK
notes: murine VH of G7mAb (G7mAb-VH); human heavy-chain constant region of the chimeric antibody; murine VL of G7mAb (G7mAb-VL); human light-chain constant region of the chimeric antibody; Chimeric: murine G7mAb variable domains on human constant regions; The vectors of the laboratory hold IgG1 H and L chains and the constant region of the humanized antibodies is from Cetuximab; also called parental …
Turning to B1, in the test with CD24-GST, the equilibrium dissociation constant (Kd) is 0.191 nM, the off-rate constant (koff) is 0.000336 s⁻¹ and the kon was 1.76e+06 M⁻¹ s⁻¹. In addition, in test [1], the “binding rate to BEL-7402 cells” value stood at 79.3% and the “binding rate to Huh-7 cells” value is 88.4%.

B2: hG7-BM3 (hVH-B2, hVL-B1) (antibody, V domains shown)
VH: QVQLVESGGGVVQPGRSLRLSCAASGFTFSRYWMSWVRQAPGKGLEWIAEINPDSSTINYTPSLRDKFTISRDNSKNTLYLQMSSLRAEDTAVYYCARQGDYWGQGTLVTVSS
VL: DIVMTQTPLSLSVTPGQPASISCKSSQSLLHSDGKTYLNWYLQKPGQSPQRLIYLVSKLDSGVPDRFSGSGSGTDFTLKISRVEAEDVGVYYCWQGAHFPYTFGQGTKLEIK
On to B2, for which the equilibrium dissociation constant (Kd) in the test with CD24-GST was 0.57 nM.

Source of the values: PMC5584245 (Oncotarget, 2017).
